Assay [1] deals with 转化生长因子-β1 (TGF-β1) (human, UniProt P01137 279-390). The assay is described as follows: SPR (Biacore X100), cG7-sTGFBR2 captured by anti-human IgG(Fc) on a CM5 chip, TGF-β1 as analyte, 25℃. For orientation: Surface plasmon resonance follows binding to a sensor surface in real time, without labels.
Assay [2] addresses T1, CD24裸肽 (CD24 naked peptide, SPR analyte) (human, UniProt P25063 27-59, limits assumed).
T1 construct: also called 抗原CD24
T1 peptide (looked up): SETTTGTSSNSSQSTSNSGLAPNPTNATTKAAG
The assay is described as follows: SPR (Biacore X100), cG7-sTGFBR2 captured by anti-human IgG(Fc) on a CM5 chip, CD24 naked peptide as analyte, 25℃.

Chain of 转化生长因子-β1 (TGF-β1) (P01137 279-390 limits assumed): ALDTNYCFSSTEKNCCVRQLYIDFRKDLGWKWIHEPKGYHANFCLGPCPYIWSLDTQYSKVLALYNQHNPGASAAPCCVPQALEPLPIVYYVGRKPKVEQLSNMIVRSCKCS

B1: 靶向CD24的双特异性融合抗体cG7-sTGFBR2 (anti-CD24 humanized chimeric antibody cG7 fused at the heavy chain C-terminus via Gly4Ser to the human TGFBR2 extracellular domain … (bispecific antibody, human IgG1, kappa)
heavy: not shown
light: DIVMTQTPLSLSVTIGQPASISCKSSQSLLHSDGKTYLNWLLQRPGQSPKRLIYLVSKLDSGVPDRFTGSGSGTDFTLKVSRVEAEDLGVYYCWQGAHFPYTFGGGTKLEIKVDTVAAPSVFIFPPSDEQLKSGTASVVCLLNNFYPREAKVQWKVDNALQSGNSQESVTEQDSKDSTYSLSSTLTLSKADYEKHKVYACEVTHQGLSSPVTKSFNRGEC
notes: also called 融合双特异性抗体cG7-sTGFBR2
In assay [1], B1 came in with a Kd of 55.5 nM, a koff of 0.0636 s⁻¹ and a kon of 1.15e+06 M⁻¹ s⁻¹. Besides, in assay [2], the Kd stood at 0.122 nM, the koff is 1.14e-05 s⁻¹ and the on-rate constant (kon) amounted to 93700 M⁻¹ s⁻¹.

What is called Kd is a measure of binding affinity in units of concentration. By koff is commonly meant the first-order rate constant of dissociation. By kon is commonly meant the second-order rate constant of association. A low value points to slow association.

The values above are taken from patent CN110964118A (UNIV CHINA PHARMA, dated 2020).
